Residue numbers refer to the chain shown, from its start.
How the values were obtained:
Assay in all cases: cell_activity
[1] = target: T1, ER3M (in cell) E203W,Q214A,H216G (Homo sapiens) (UniProt P03372); details: HepG2, 10 nM OHT
T1 sequence: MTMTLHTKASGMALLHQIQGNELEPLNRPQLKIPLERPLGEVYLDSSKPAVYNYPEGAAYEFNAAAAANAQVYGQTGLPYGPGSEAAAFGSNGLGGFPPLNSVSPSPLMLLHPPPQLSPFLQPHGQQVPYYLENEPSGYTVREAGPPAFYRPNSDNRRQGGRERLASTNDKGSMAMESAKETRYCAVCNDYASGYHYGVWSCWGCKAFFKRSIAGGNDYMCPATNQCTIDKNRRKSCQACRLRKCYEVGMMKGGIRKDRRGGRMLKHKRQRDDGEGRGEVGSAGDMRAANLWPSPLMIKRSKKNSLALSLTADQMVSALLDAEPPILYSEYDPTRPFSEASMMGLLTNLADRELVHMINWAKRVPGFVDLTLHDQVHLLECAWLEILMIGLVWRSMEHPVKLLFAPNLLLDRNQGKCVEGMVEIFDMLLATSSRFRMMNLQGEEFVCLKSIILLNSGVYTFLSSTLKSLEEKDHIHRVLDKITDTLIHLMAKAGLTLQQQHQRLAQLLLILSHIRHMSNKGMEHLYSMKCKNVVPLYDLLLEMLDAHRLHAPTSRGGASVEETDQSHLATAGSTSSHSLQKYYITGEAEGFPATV

[2] = target: T2, ER4.3 (in cell) E203W,Q214V,G215R,H216P,N217T (Homo sapiens) (UniProt P03372); details: HepG2, 10 nM OHT
T2 sequence: T1 sequence with A214V, G215R, G216P, N217T

[3] = target: T3, ERα wild type (in cell) (Homo sapiens) (UniProt P03372); details: HepG2, OHT
T3 sequence: T1 sequence with W203E, A214Q, G216H

GCTAGCGGGCCACTGTGGCCCTGACAACTAGTAAGTCGGGCCACTGTGGCCCGACGTACTATCTCGAGGGGCCACTGTGGCCCTAGAGCTGCAGGTATCGGGCCACTGTGGCCCTAGTTCATTAAAGCTTGGGCCACTGTGGCCCATCAAGATATCGAGATGGGCCACTGTGGCCCATCGACAGGAATTCACGGGCCACTGTGGCCCATCAAGATATCGAGATGGGCCACTGTGGCCCATCGACTCTAGA (double strand) [ATL8/PAL]
activity (fold induction) [1]: 117 | activity (fold induction) [2]: 172 | activity (fold induction) [3]: 52
